Laboratory results as given in publication PMC7842947.

Molecular target: chondroitin sulfate proteoglycan 4 (CSPG4), endogenous on HeLa cells (human (endogenous in HeLa)) (UniProt Q6UVK1)
UniProt Q6UVK1, sequence (Q6UVK1 30-2322): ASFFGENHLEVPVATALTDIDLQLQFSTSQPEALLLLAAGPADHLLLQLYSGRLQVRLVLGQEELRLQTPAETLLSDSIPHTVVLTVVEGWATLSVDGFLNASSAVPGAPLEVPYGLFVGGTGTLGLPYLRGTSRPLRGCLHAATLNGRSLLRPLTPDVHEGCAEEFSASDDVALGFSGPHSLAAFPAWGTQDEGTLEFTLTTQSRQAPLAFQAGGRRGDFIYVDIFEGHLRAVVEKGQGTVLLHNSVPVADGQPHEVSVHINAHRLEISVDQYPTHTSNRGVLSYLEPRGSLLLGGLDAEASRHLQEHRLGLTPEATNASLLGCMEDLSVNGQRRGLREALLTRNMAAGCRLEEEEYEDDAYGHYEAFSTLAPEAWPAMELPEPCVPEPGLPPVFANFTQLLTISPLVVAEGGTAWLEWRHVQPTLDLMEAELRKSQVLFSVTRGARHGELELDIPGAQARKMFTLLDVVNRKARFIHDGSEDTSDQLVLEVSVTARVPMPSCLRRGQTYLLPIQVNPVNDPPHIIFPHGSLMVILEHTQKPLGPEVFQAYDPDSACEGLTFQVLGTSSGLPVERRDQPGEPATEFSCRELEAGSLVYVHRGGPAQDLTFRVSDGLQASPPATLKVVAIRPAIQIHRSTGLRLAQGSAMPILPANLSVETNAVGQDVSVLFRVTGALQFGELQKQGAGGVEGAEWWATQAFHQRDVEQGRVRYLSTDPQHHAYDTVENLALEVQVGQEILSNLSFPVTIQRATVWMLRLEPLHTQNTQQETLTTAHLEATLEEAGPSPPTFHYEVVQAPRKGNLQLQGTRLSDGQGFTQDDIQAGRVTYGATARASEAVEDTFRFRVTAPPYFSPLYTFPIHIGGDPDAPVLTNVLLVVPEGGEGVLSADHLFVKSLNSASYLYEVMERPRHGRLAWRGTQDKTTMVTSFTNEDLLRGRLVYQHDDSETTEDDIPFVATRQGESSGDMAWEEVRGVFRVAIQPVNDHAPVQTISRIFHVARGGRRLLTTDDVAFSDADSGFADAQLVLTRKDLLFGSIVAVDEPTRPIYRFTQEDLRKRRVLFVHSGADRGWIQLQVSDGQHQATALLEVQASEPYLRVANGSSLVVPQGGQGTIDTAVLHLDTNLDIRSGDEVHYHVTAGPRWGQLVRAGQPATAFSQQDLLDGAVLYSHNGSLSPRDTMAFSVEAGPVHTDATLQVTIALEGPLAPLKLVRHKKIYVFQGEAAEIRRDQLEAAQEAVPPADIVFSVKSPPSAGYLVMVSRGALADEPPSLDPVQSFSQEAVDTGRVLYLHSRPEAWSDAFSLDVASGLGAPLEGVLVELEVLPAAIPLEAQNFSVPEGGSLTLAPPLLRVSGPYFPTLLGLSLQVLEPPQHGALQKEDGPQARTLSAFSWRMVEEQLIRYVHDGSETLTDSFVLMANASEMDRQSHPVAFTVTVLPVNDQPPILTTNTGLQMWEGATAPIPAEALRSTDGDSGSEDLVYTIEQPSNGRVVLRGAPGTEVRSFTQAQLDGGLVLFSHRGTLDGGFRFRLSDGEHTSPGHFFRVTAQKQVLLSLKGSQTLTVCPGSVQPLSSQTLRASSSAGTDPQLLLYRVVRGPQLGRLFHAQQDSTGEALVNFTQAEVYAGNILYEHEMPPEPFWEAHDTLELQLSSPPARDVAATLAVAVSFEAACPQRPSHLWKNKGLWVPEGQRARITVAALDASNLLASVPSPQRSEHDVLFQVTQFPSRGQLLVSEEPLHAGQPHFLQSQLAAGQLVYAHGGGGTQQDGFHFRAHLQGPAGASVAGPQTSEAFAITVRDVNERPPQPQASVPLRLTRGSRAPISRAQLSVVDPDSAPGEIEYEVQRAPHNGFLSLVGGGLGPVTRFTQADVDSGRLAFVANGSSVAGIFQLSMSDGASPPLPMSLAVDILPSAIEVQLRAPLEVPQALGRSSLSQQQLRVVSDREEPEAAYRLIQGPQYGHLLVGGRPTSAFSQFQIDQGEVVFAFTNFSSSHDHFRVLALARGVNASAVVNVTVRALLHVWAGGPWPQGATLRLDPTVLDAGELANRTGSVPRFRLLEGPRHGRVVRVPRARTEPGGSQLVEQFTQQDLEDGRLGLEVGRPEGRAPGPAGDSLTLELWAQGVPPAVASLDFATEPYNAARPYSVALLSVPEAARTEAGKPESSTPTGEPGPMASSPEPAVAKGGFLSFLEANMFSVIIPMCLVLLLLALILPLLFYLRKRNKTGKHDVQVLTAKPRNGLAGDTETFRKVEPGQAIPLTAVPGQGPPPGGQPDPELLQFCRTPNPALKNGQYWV

Work on “Clostridioides difficile toxin B variant 2 (TcdB2), full length, reference sequence from strain CD196 (natural protein)” yielded a CR50, cytopathic cell-rounding assay on HeLa FZD1/2/7-/- cells of 0.06 pM.
